# Test results: US20060263331A1, “Therapeutic use of tumor necrosis factor-alpha mutein” (priority 2002, published 2006)
# Tests used:
# Lung Cancer = experiment: Clinical monotherapy of rhTNFm1, lung cancer; format: in vivo, human
# Text: (§1) Patients were selected based on the following criteria: i) measurable, objective tumor; ii) Karnofsky performance status (KPS)≧60; iii) age 18-75; iv) major organs in basically normal condition; v) no chemotherapy, radiotherapy and biologic therapy within the last month; vi) predicted ≧3 mon. survival; and vii) with patient's informed consent signed.
# (§2) Patients were excluded based on the following criteria: i) with history of allergic reactions to TNF or its derivatives; ii) pregnant or lactating women; iii) major organs with obvious damages or malfunction; iv) in ≧38° C. fever; v) with obvious tendency to haemorrhage; vi) with history of hypo- or hypertension; vii) with serious albuminemia; and viii) with strong tendency of disobedience or resistance.
# (§3) Patients were removed from the evaluation if any of the following conditions apply: i) treatment was not completed according to the protocol; ii) incomplete records; and iii) treatment using cancer therapies not in the protocol. However, patients who withdrew due to adverse reactions to the therapy were still included in the evaluation.
# (§4) The results of the treatment of tumors were evaluated based the following criteria: i) complete response (CR)—complete disappearance of observable pathological changes for at least 4 weeks; ii) partial response (PR)—reduction by ≧50% in tumor size measured by the product of the maximum circular and vertical dimensions for at least 4 weeks; iii) minimum response (MR)—reduction by >25% but <50% in tumor size measured by the product of the maximum circular and vertical dimensions for at least 4 weeks; iv) stabilized (SD)—reduction by ≦25% but without increase by >25% in tumor size measured by the product of the maximum circular and vertical dimensions for at least 4 weeks; and progression (PD): increase by >25% in tumor size in one or more sites.
# (§5) Patients rested on day 1 and 2. The treatment cycle was 3-4 weeks.
# malignant tumors = experiment: Clinical monotherapy of rhTNFm1, all malignant tumors (Total); format: in vivo, human; conditions: Total of tumor indications, 141 patients
# Text: as §1, §2, §3, §4, §5
# [1] = in vivo
# Description: Patients with the following malignancy: malignant lymphoma, lung cancer, melanoma, breast cancer, liver cancer, kidney cancer, colon cancer, pleural effusion and ascites were treated with a monotherapy of the recombinant protein rhTNFm1 described above.
# Patients were treated with rhTNFm1 at 600,000-900,000 unit/m^2 (about 1-50 μg/m^2 depending on the specific bioactivity of a particular lot) per day, 5 times a week (day 3-7) via i.v. injection. Patients rested on day 1 and 2. The treatment cycle was 3-4 weeks.
# Liver Cancer = experiment: Clinical monotherapy of rhTNFm1, liver cancer; format: in vivo, human; conditions: 12 patients
# Text: as §1, §2, §3, §4, §5
# [2] = tested on: malignant pleural effusion or ascites; experiment: Clinical monotherapy of rhTNFm1, malignant pleural effusion or ascites (Total); format: in vivo, human; conditions: 169 patients
# Text: as §1, §2, §3
# The results of the treatment of malignant pleural effusion (or hydrothorax) and ascites were evaluated based on a modified Millar standard (Millar J W, Hunfer A M, Home N W. (1980) “Inerapleural immunotherapy with CP”, in Recurrent Malignant Pleural Effusions. Thorax 35:856): i) complete response (CR)—complete disappearance of pleural effusion or ascites for at least 1 month; ii) partial response (PR)—reduction by at least 1 grade for at least 1 month; iii) minimum response (MR)—reduction in the levels of pleural effusion or ascites within the same grade for at least 1 month; iv) stabilized (SD)—levels of pleural effusion or ascites maintained within the same grade for at least 1 month; and progressed (PD): increase in the levels of pleural effusion or ascites compared with those before the treatment.
# as §5
# It is noted that Table III includes the patients who withdrew due to […], including 1 with malignant pleural effusion and 1 with malignant ascites. For patients with malignant ascites, rhTNFm1 was reconstituted in 30-50 ml normal saline and administered intraperitoneally (i.p.) at 2,000,000-3,000,000 units each time, 1-2 times a week, with 2-3 weeks as one treatment cycle. Optionally, rhTNFm1 was administered to the patients by alternating between i.p. injection and i.v. injection (at 600,000-900,000 unit/m^2 per day continuing for 28 days as one treatment cycle). On the day when rhTNFm1 was administered via i.p. injection, administration of rhTNFm1 via i.v. injection was stopped.
# Breast Cancer = experiment: Clinical monotherapy of rhTNFm1, breast cancer; format: in vivo, human; conditions: 10 patients
# Text: as §1, §2, §3, §4, §5
# Colon Cancer = experiment: Clinical monotherapy of rhTNFm1, colon cancer; format: in vivo, human; conditions: 7 patients
# Text: as §1, §2, §3, §4, §5
# [3] = KPS of patients treated with rhTNFm1 alone; format: in vivo, human; conditions: P=0.013, particularly malignant pleural effusion
# Text: as §1, §5
# [4] = Lung Cancer, 20 patients, monotherapy
# [5] = patient count, Lung Cancer, 20 patients, monotherapy
molecule,measurement,setting,value
"rhTNFm1: Recombinant human TNF-α mutant 1 expressed in E. coli; SEQ ID NO: 3 with N-terminal methionine (FIG. 1, 2) (protein, rhTNFm1 with Met) MRKRKPVAHVVANPQAEGQLQWLNRRANALLANGVELRDNQLVVPSEGLYLIYSQVLFKGQGCPSTHVLLTHTISRIAVSYQTKVNLLSAIKSPCQRETPEGAEAKPWYEPIYLGGVFQLEKGDRLSAEINRPDYLDFAESGQVYFGIIAQ",Response Rate (%) CR,Lung Cancer; [4],0.00%
same,Response Rate (%) CR + PR,Lung Cancer; [4],5.00%
same,Response Rate (%) PR,Lung Cancer; [4],5.00%
same,"pleural fluid, reexamination about 1 month later",Lung Cancer; one lung cancer patient,little pleural fluid remained
same,"tumor diameter, reexamination about 1 month later, CT scanning",Lung Cancer; one lung cancer patient,3.5 cm
same,"tumor diameter after the treatment, CT scanning","Lung Cancer; one lung cancer patient, before 5 cm",2.5 cm
same,quality of life score after the treatment,"Lung Cancer; one lung cancer patient, before 40",53
same,KPS after the treatment,"Lung Cancer; one lung cancer patient, before 70",90
same,pleural fluid after the treatment,"Lung Cancer; one lung cancer patient, before a large amount of pleural fluid",small amount of pleural fluid remained
same,Efficacy CR,Lung Cancer; [5],0
same,Efficacy MR,Lung Cancer; [5],2
same,Efficacy PD,Lung Cancer; [5],4
same,Efficacy PR,Lung Cancer; [5],1
same,Efficacy SD,Lung Cancer; [5],13
same,Response Rate (%) CR,malignant tumors,1.42%
same,Response Rate (%) CR + PR,malignant tumors,16.31%
same,Response Rate (%) PR,malignant tumors,14.89%
same,Efficacy CR,malignant tumors; patient count,2
same,Efficacy MR,malignant tumors; patient count,14
same,Efficacy PD,malignant tumors; patient count,29
same,Efficacy PR,malignant tumors; patient count,21
same,Efficacy SD,malignant tumors; patient count,75
same,adverse effects compared to wild type TNF-α,[1],much fewer and weaker adverse effects
same,duration of chill,[1],≤ 30 min
same,duration of chills,[1],no more than half an hour
same,duration of fever,[1],no more than half an hour
same,fever grade during the treatment,[1],Grade I
same,highest body temperature during the treatment,[1],37.2 °C
same,patients with 3rd degree fever,[1],two
same,patients with chills,[1],23%
same,patients with fever below the 2nd degree,[1],About 38%
same,patients with mild chills,[1],11%
same,patients with slight chills,[1],12%
same,time of occurrence of chills after the administration,[1],≤ 30 min
same,time of occurrence of fever post administration,[1],1 to 2 h
same,adverse reactions during the treatment,[1]; iv,slight asthenia
same,Response Rate (%) CR,Liver Cancer,0.00%
same,Response Rate (%) CR + PR,Liver Cancer,0.00%
same,Response Rate (%) PR,Liver Cancer,0.00%
same,Efficacy CR,Liver Cancer; patient count,0
same,Efficacy MR,Liver Cancer; patient count,0
same,Efficacy PD,Liver Cancer; patient count,2
same,Efficacy PR,Liver Cancer; patient count,0
same,Efficacy SD,Liver Cancer; patient count,10
same,Response Rate (%) CR,[2],8.88%
same,Response Rate (%) CR + PR,[2],69.23%
same,Response Rate (%) PR,[2],60.36%
same,Efficacy CR,[2]; patient count,15
same,Efficacy MR,[2]; patient count,12
same,Efficacy PD,[2]; patient count,2
same,Efficacy PR,[2]; patient count,102
same,Efficacy SD,[2]; patient count,38
same,Response Rate (%) CR,Breast Cancer,0.00%
same,Response Rate (%) CR + PR,Breast Cancer,0.00%
same,Response Rate (%) PR,Breast Cancer,0.00%
same,Efficacy CR,Breast Cancer; patient count,0
same,Efficacy MR,Breast Cancer; patient count,0
same,Efficacy PD,Breast Cancer; patient count,4
same,Efficacy PR,Breast Cancer; patient count,0
same,Efficacy SD,Breast Cancer; patient count,6
same,Response Rate (%) CR,Colon Cancer,0.00%
same,Response Rate (%) CR + PR,Colon Cancer,0.00%
same,Response Rate (%) PR,Colon Cancer,0.00%
same,Efficacy CR,Colon Cancer; patient count,0
same,Efficacy MR,Colon Cancer; patient count,0
same,Efficacy PD,Colon Cancer; patient count,4
same,Efficacy PR,Colon Cancer; patient count,0
same,Efficacy SD,Colon Cancer; patient count,3
same,KPS compared to that prior to the treatment,[3],significantly improved
